Series [1] addresses Orb2 filaments purified from adult heads (Drosophila melanogaster (endogenous in …, UniProt Q9VSR3 1-704)). Kind of series: seeded aggregation.
Series [2] deals with the molecule itself. Kind of series: SDS-PAGE and SDD-AGE with western blotting.

B1: Orb2 (Drosophila CPEB) purified from adult heads (natural protein)
chain: MDSLKLPKANSATSSASGSNSNLSGSTSASASAATSPTSSGTAVGGILSGAPKSPPGLGSSTPISVRFNANEESLDDILQSFHHSKHSPSGGASGGGDASPTSNLLGMKNNGLGLVVGNCDSLSSSPSQPQMHAGSASLFGNDEVSLRNNFMQAGGFFNRKSCGGLPNLNLNKPPQLHQQQHQQQHQQHQQHQQQQQLHQHQQQLSPNLSALHHHHQQQQQLRESGGSHSPSSPGGGGGGSPYNGSQAGCSSGGISPIPPQMGVSPKYRRSISFPIKGNSPTAIYGNMHMDGMGSGHMNIPTLSIGNGGGGGSTGMVSAGATGGGDAPYLGNSYGNMMTSNGQMHHGGGLDNSLCDYMRNMSLGGNGGGDGSNSMSLMQDRMRVMGGPKHLSEADAMAIAASGNDPSVYLNALKMGSPSRLSPHSPHSPIQGGNGGNVGDGTARFSRKVFVGGLPPDIDEDEITTSFRRFGPLVVDWPHKAESKSYFPPKGYAFLLFQDESSVQQLIDSCITDEDKLYLCVSSPTIKDKAVQIRPWRLADADYVLDATMSLDPRKTVFVGGVPRPLKAFELAMIMDRLYGGVCYAGIDTDPELKYPKGAGRVAFSNQQSYIAAISARFVQLQHGDIDKRVEVKPYVLDDQMCDECEGQRCGGKFAPFFCANVTCLQYYCEHCWAVIHSRPGREYHKPLVKEGADRPRAVPFRWC
Regarding B1, the binding result in series [1] and in series [2] was “binds” each time.
